Molecular target: Cdc42, endogenous in human mammary epithelial cells (human (endogenous in MCF10A and HMEC)) (UniProt P60953)
Assay: pull-down

UniProt P60953, sequence (P60953 whole entry): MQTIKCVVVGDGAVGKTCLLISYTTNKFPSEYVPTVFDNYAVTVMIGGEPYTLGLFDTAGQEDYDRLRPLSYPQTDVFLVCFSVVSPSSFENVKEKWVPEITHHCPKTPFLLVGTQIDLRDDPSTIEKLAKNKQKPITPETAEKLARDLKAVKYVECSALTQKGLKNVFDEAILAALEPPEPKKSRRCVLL

| Substance | percent decrease of the pull-down relative to TβRIII |
| --- | --- |
| TβRIIIΔCyto (TβRIII lacking cytoplasmic domain) (domain or fragment) | 60% |
| TβRIII-T841A (β-arrestin2 binding deficient) (from UniProt Q03167 21-851) (receptor) | 70% |

— paper PMC4082962
